Laboratory results reported in patent US6451314B1, “MHC conjugates useful in ameliorating autoimmunity” (Anergen, Inc., priority 1988, dated 2002).

What was measured:
[1] = test system: RT1.D; test: Peptide loading of rat MHC II (nitrocellulose filter binding and TLC); details: 50-fold molar excess peptide, 37° C., 24 hours
Experimental: (§1) Rat MHC II Purification and Peptide Loading. Rat class II RT1.B and RT1.D molecules were detergent solubilized (0.5% NP-40, 10 mM Tris HCl pH 8.3, 1 mM PMSF, 0.02% NaN3) from homogenized spleens and purified by affinity chromatography with monoclonal antibodies OX 6 and […]. The RT1.B/D mixture was incubated at 37° C. for 24 hours with a 50-fold molar excess of peptide AChRα 100-116, followed by 24 hours of dialysis at 4° C. against 0.1% OG/PBS to remove unbound peptide. […] This complex is stable at 4° C. for at least 8 weeks.

[2] = test system: RT1.B; test: as above; details: 50-fold molar excess peptide, 37° C., 24 hours
Experimental: as §1

[3] = test system: Lewis rats; test: Therapeutic treatment of clinical stage 1 EAMG
[4] = Serum half-life of 125I-labeled I-A^k, effect of asialoletuin; type: in vivo, mice
Experimental: (§2) The protocol for these studies was generally as follows: Affinity-purified, soluble MHC molecules were labeled with ^125I by the iodobeads method (Pierce Chemical Co., Rockford, Ill. Excess ^125I was removed by dialysis against PBS containing 0.1% neutral detergent. The quality of the labeled protein was assessed by thin layer chromatography, cellulose acetate electrophoresis, and polyacrylamide gel electrophoresis. The MHC glycoprotein was administered by tail vein injection to mice subjected to Lugol's solution in the drinking water at least one day before injection. Blood samples were obtained at different time points. The animals were then sacrificed to obtain organs of interest. Radioactivity in the blood and organ samples was detected in a gamma well counter according to standard techniques.
IA^k was labeled and administered to mice as described above. The mice were divided into three sets: (1) I-A^k (10 μg i.v.); (2) I-A^k (10 μg i.v.) plus asialoletuin (10 mg i.v.) plus asialoletuin (100 mg i.p.); and (3) I-A^k (10 μg i.v.) plus asialoletuin (10 mg i.p.). Blood was drawn at different time points and the percent of injected dose retained in the blood was calculated.

[5] = Serum half-life of 125I-labeled I-A^s, effect of liposomes; type: in vivo, mice; details: Sets 1 and 2: 10 μg, injected without blank liposomes
Experimental: as §2
I-A^s was labeled as described above. The labeled I-A^s molecules were captured inside liposomes by standard procedures (see, e.g., Remingtion's, supra). Ten mice were injected with 10 μg I-A^s, as described above, and divided into four sets: (1) I-A^s alone; (2) liposomal I-A^s; (3) liposomal I-A^s coinjected with blank liposomes; and (4) blank liposomes plus, 10 minutes later, liposomal I-A^s coinjected with blank liposomes. Blood samples were obtained at different time points after injection, and the percent of injected dose of I-A^s retained in the blood was calculated.

[6] = Serum half-life of 125I-labeled I-A^k, effect of periodate/cyanoborohydride treatment; type: in vivo, mice; details: 10 μg i.v.
Experimental: as §2
I-A^k in a phosphate buffer containing 3 mM taurodeoxycholate at pH 7.5 was labeled as described above. The labeled molecules were subjected to periodate oxidation and cyanoborohydride reduction for 5 or 21 hours at 4° C., using 20 mM sodium periodate and 40 mM cyanoborohydride (final concentrations) in 0.1 M acetate buffer at pH 5.5. The reaction was quenched by addition of ethylene glycol (final concentration 0.7%). […] Blood samples were obtained at different time points and the percent of injected dose of I-A^k retained in the blood was calculated.

[7] = test system: T cell clones AJ1.2 and 4R3.4; test: Proliferation (MTT uptake) of T cell clones with APC and MBP(1-13) after preincubation; type: cell-based, mouse; details: preincubation five hours at 37° C., 72-hour incubation
Experimental: The effects of detergent-solubilized Class II molecules were examined by culturing 1×10^5 AJ1.2 or 4R3.4 cells with 50-100 ul of purified I-A^k alone, purified I-A^k plus MBP(1-13) and medium alone for five hours at 37° C. in 5% CO2. Following this incubation the cells were diluted to 900 ul and tested for their ability to respond to antigen-presenting cells (APC) and antigen [MBP(1-13)] in a proliferation assay. Uptake of 3-(4,5-dimethyl-thiazol-2-7′)-2,5 diphenyltetrazolium bromide (MTT) was used as an indication of cell proliferation.
Data are presented as % suppression of proliferation of cells incubated with Class I+Ag compared to cells cultured with medium alone and were calculated by using the formula:
Therefore, 4R3.4 or AJ1.2 cells were preincubated with 50-100 ul of I-A^k+MBP(1-13), I-A^k, or medium alone for five hours at 37° C. The cells were then diluted to an appropriate concentration and added to APC. Antigen [MBP(1-13)] was added to a final concentration ranging from 13.3 um to 53.2 um.
APC used in the study were prepared from spleens of female A/J mice. […] Following this incubation, spleen cells were washed five times with RPMI containing antibiotics, counted, and used as APC's.
Following a 72-hour incubation period of the cells with APC and MBP(1-13), the extent of proliferation was quantitated using MTT uptake. […]

Question: What does the source list for YAIVHMTKLLLDYPGKI [AChRα 100-116]?
Answer: fraction of RT1.D that bound peptide [1]: 90-100%; fraction of RT1.B that bound peptide [2]: 70-80%; clinical stage of representative rat ([3]; 61 days post EAMG induction): 2.5; clinical stage of representative rat ([3]; 123 days post EAMG induction): Dead (day 66); survival frequency ([3]; 140 days post-induction, five weekly i.v. injections from clinical stage 1): 0%

B1: I-A^k: mouse Class II MHC glycoprotein I-A^k purified by affinity chromatography on 10-2.16 antibody (protein)
MHC II alpha: EDDIEADHVGSYGITVYQSPGDIGQYTFEFDGDELFYVDLDKKETVWMLPEFAQLRRFEPQGGLQNIATGKHNLEILTKRSNSTPATNEAPQATVFPKSPVLLGQPNTLICFVDNIFPPVINITWLRNSKSVTDGVYETSFFVNRDYSFHKLSYLTFIPSDDDIYDCKVEHWGLEEPVLKHWEPEIPAPMSELTE
MHC II beta: GNSERHFVHQFQPFCYFTNGTQRIRLVIRYIYNREEYVRFDSDVGEYRAVTELGRPDAEYWNKQYLERTRAELDTVCRHNYEKTETPTSLRRLEQPSVVISLSRTEALNHHNTLVCSVTDFYPAKIKVRWFRNGQEETVGVSSTQLIRNGDWTFQVLVMLEMTPRRGEVYTCHVEHPSLKSPITVEWRAQSESARSK
Question: Which mean serum half-life ([4]; Set 1: I-A^k 10 μg i.v.) does the source give for B1 here?
Answer: 3 min

Question: What about the mean serum half-life ([4]; Set 2: I-A^k 10 μg i.v. plus asialoletuin 10 mg i.v. plus asialoletuin 100 mg i.p.) of the same molecule?
Answer: 40 min

Question: And the mean serum half-life ([4]; Set 3: I-A^k 10 μg i.v. plus asialoletuin 10 mg i.p.)?
Answer: 35 min

Question: What about the serum mean half-life [5] of the same molecule?
Answer: 2 min

Question: What about the serum half-life [6] of the same molecule?
Answer: 4 min

Question: What about the “proliferation in presence of APC and MBP(1-13)” value [7] of the same molecule?
Answer: proliferated to the same extent as cells cultured in medium
